Results from publication PMC2919377, “A Nuclear Family A DNA Polymerase from Entamoeba histolytica Bypasses Thymine Glycol” (PLoS Neglected Tropical Diseases, 2010).

How the values were obtained:
Assay in all cases: purified protein
Format in all cases: biochemical, Entamoeba histolytica
Conditions in all cases: opposite cognate template base, primer-template DNA, optimised buffer (Mg2+ optimum 2.5 mM, pH optimum 7.5), 37 °C
[1] = substrate: Nc1ccn([C@H]2C[C@H](O)[C@@H](COP(=O)(O)OP(=O)(O)OP(=O)(O)O)O2)c(=O)n1
[2] = substrate: Nc1nc2c(ncn2[C@H]2C[C@H](O)[C@@H](COP(=O)(O)OP(=O)(O)OP(=O)(O)O)O2)c(=O)[nH]1
[3] = substrate: Nc1ncnc2c1ncn2[C@H]1C[C@H](O)[C@@H](COP(=O)(O)OP(=O)(O)OP(=O)(O)O)O1
[4] = substrate: Cc1cn([C@H]2C[C@H](O)[C@@H](COP(=O)(O)OP(=O)(O)OP(=O)(O)O)O2)c(=O)[nH]c1=O

B1: EhDNApolA (Entamoeba histolytica HM-1:IMSS) (protein)
chain: MEKTPRNSVDDLLMLFEDVKDNNKPVDYTKLESEETKKTENKERRKSLSINVNDEIPEKRKRKSIKQEGTPQPKVGAVFEIQYQHLPNKIDISELKELLEKIPKMEGKIMFNEKNLEQSIVINCTNNGIHALIGNSYVVLKKELLPEIINSRRLIIVYNLMEEIKNYRNNIKCILENFNTNNTIFDTYIGASTIDPGSVDGKTFSQICLVYEVIINKSTIEERLKQTRRLAVKEVEVMNNDNMIKVFQEQEMIIDGVLIEMNYCNEFKIDNKLLNEQRKKLIEEQHKIEMETKKIIGRTINLSSPEQVKKELIRFNIGIDGIKKKATTDKKILSQSDHPFAKLVLEYRKISKLLSGVIEQIRKCCIKSGDEYFIRTTWSQTAIVTGRIQSKSPNLQQIPKQSFSLPQCLIIPRDLFITHNNNTFVAIDYNQIELRILADFTKDHHLIEFFKSNTDVHRLIAAHWLKKNVNDITDDERRKAKTIVYGCIYGIGPFSLADQLHVSLDESKAFLESFLDQFPAFKKWKEETITNASTTGFVHTINNRRRRINNLTDCNDKKTVAESKRIAVNSPIQGTAADIIKMCMIEIFKKLHSSWVGVQLLLNIHDEIVLEVPDHLLDEVCVTLKHLMEHIVKLEVPLVVTVETGKKWGSLHPYNLN
notes: full-length ORF, 657 aa, about 75 kDa, N-terminal 6-His tag (pCOLD I), expressed in E. coli BL21 DE3-Rosetta II; Ni-NTA and phosphocellulose
Protein B1 has a Km [1] of 2.1 ± 0.3 µM, a Vmax [1] of 0.0032 µmol/min and a Km [2] of 1.56 ± 0.2 µM. The Vmax [2] was 0.0035 µmol/min, the Km [3] was 2.3 ± 0.2 µM and the Vmax [3] was 0.0033 µmol/min. It also gave a Km [4] of 1.49 ± 0.3 µM and a Vmax [4] of 0.0029 µmol/min.
